Results from the DeepSol protein solubility set.

Test: soluble on expression in E. coli; label from the status in PepcDB or PDB records

Sequence	soluble on expression in E. coli
MGSDKIHHHHHHMITNQKLKKSLEEIKNITSFDAILYSAKGKHLTGTVEEPEHSDIFVKEFIVSEEDVREKNDAIAFAVEIDSELEYVLVMFCPYTSENLVIGRMAVCQLRTLVLGESERYDRNNFIQNILLGNMLGSDIINRAKKLHIENRKRVVYVIDTGKNSNEIAVELAKNLADIRSGDFVVAMDEHNVVLVKDVEDIDSPKLQEKLSSIAGSLVDNLLAEAMIKVRVGYGNPTDVLPKITESYQEAKMALEVGRLFYVEKEIMAYDRLGIGRLIYQLPMSLCEMFIREVFGDEVPQILDDEEAMSTISKFFENNLNISETARQLYVHRNTLVYRLERIEKSIGLDIRTFDDAMIFKIATMVLAHIKDSRQGR	not soluble
MGSDKIHHHHHHMIVTEYELLVCLAEELNMRKSAEKLFLSQPALSQRLQTIESRWNTKIFIRTQKGLLLTPEGEAIVRHASSVIEREHTIQEKLEAMEGVVRGTLRIACASVVAQMWLPRVLKAFSRTYPNVQISLVTGWSSEVTQQLAAGNVHIGIVRGSSTWKSVQKPLFNDKLILVDTEITKIEEVFQTNRPFIQFRSDSNYYQVIQDYWQRNFGKMPRQAMLMDQMETSRQMALNGIGFAILPEVTMIGYTDKINKIPLTEKDGSILSRETNLLTYEQSLSLPQVKAFLEITDKFLEQVK	not soluble
MGSDKIHHHHHHMIYISKEINTPLYDQIYRQIQGDIISGNLSPGTLLPGIRTLAKTLGVARNTVDKAYTQLAVEGYIIPRKGAGFAVESIRDSKKSAELQPLSSGVSAHPGHEKAEKKLPYDFQYGSFPEEYFPKTAWKKHMLEVLALPHLSAQMTQYQDKQGNLSLRCELQNYLYQTRGVVCTEDQILIGCGLHYSLDTLCKLFAGHKRIAMEEPGYNGAKEVFQNNGFTIRHIPSTPYGLDLSQLKTLAVPIVYVTPSHQFPYGTVLPISKRRELLEWAAEENAYIIEDDYDSEYRYDANPIPSLQSIDGHDRVIYIGTFSKSLSPSLRINYMVLPKSLLPAYHQMFSTYSSPVTWLTQEVLASFLRSGDYTRHVRRMCAAYRKRHDVFVQQLSQHFGPNIVLHGQGAGLHFLVEFAEEVEAEGLIQMAEEAGVRVYPVTPFWSASEACPPNLLFAGYSLLNERQIQEGLRLLKEVWAPVLEIK	not soluble
MGSDKIHHHHHHMIYKVISKDEFRNFVDALVRANTSYGPRQVDTDRNGEPIYQFMPVSSASEIAFDYTVTTSSAKHFLMPFREELSKFSFRDGDWDQEVKYDAPPIVLVGLRPCDINAINILDEVMLKGPYPSPYYLARRKNTFIIGMDHLPLPDCFCRSMNRHTTDHGFNLFASDIGESYFLSINSSKAFNFLKEFETTEPTEEDDCKLIERRKLIKQSFKTNVEVTGLPVFLDLEFDSPIWKKWGDKCLNCGSCAMVCPTCYCYNVEEHFETNLESSSRQRRLYSCNLIDFAEVTGGHNFRPKNGDRLKYRYYHHYRGFAVNDNQQICVGCNRCGRACLAGINPKDVINDLRLEKESCVTCVSPSPAKT	not soluble
MGSDKIHHHHHHMKAGTQKTLTHSDLVEQGVRFLLASYVDLHGVPKAKAVPISHFDRMMNGSEMFTGAALDGVPQEISDEEVAAHPDMGSAIVLPWSKDIAWLPSDLYTQGEPFNACSRTILKKVRQQAAELGMAMQLGIEAEFFVLKDQEAGGFSPISTRHHLKKPAYDVARLLDNKPWLSELVEAMDSLDWGVYSFDHEDGIGQFEIDFSYFEVLRMADNFTFLRMMANEIARKHGGFASFMPKPYGDRAGSGAHFNISLTDINTGLNLFEPEQDDPRGCGLSTLGYQFIAGVLRHLPAICAVVAPTVNSYKRLVKQGSMSGFTWAPVFCCYGNNNRTNTIRIPLGGKRIEIRAVDSACNPYLGAAMILAAGLEGIRENLDPGDPHLDNMYEKTPEELASLGIRELPKTLEEAIDAFEADPLSRQVFGDQMFSAWTQYKREEWLSYITHVSDWEYDRYLKLF	not soluble
MGSDKIHHHHHHMKAQEVPSTTFTGGETVLTFKGGVHPPELKEWSKDKPIERAPLPQKVFVFLSNHAGNPAKPVVSPGDEVKTGQVIGEPEGFISAYLHSPVTGRVLEIKKILHPILGKPIEAIVIERTSDDEWVHIETGDFERMSKEEILEIIKKAGIVGLGGAMFPTHVKLSPPPEKKVDTLIVNGAECEPVLTIDHRLMLERAEDILQGILIMMKVLGVQKAVVGVESNKMDAYHNLKKVFKGYPVDVALLRTKYPQGAEKQLIYAITGRMVPRGGLPMDVGVVVQNVGTCVAVKEAVVDGKPLVERGMTVSGDAVKNQKNLIVRIGTPVKDVIDYCGGIDENTERVILGGPMMGISITNLDIPVMKGTSGITAFLPKKSRPQKPCIRCSECVQVCPMNLQPYLLYLLSTKRKYDEAVENGLMDCIECGSCTYTCPSKIEHVRYIKLAKTVYRATRRGRR	not soluble
MGSDKIHHHHHHMKAVVIGGGVFGSLIARELTKYDLEVTLIEKNLDVGWGVTKANSAVVHAGYDDPPESVRAQFCASGNAMYEDLSKELDFDFKRIGSFVVAFNDEELKELERLLKQGEENGVPGLTILERDEVLSMEPNLNPEVKYALYAPTAGITEPWMVAIAAVENAVQNGLKLVLGESVVGFEKVNGRVRKVHTSRGEYEADIVINCAGLHADEIAKLAGAEYVPLHPRKGEYILLDKKLQGLVKRVIFPTPTKISKGILVLPTVDGGILLGPTAEDLPEEMKDRPITTREGLEKVREFTRRLVPSLDFSLVVKTFSGLRPESPQKDFFIKVSETVKNFVNVMATRSPGLTAAPAVAKYVVEELIQEKMRIPLEKKKDFKPERKRIVHYSELPLEEWRREIERDPRAGRLVCFCNEVTEKEIVEAIRRGARTLNGVKFRTRAMFGRCQGGFCMARILKILERELGVDMSEIKMKSENSWVVNGKVRE	not soluble
MGSDKIHHHHHHMKAVYPGSFDPITLGHVDIIKRALSIFDELVVLVTENPRKKCMFTLEERKKLIEEVLSDLDGVKVDVHHGLLVDYLKKHGIKVLVRGLRAVTDYEYELQMALANKKLYSDLETVFLIASEKFSFISSSLVKEVALYGGDVTEWVPPEVARALNEKLKEGKR	soluble
MGSDKIHHHHHHMKCSQCNKKLCYTGKDCKKDITQKIIEEYKKEENLKIAEVSAYIEATYYMKKTRLEEIIEFCKLMEYKKIGIAFCIGLENEAKILAKILSKHFEVYSVCCKVCGIDKDVFKFKKINKGEKEAMCNPIGQAEILNEIGTDLNIIVGLCIGHDILFQKYSKAPTTTFIVKDRVLSHNTAGAIYTKYYLKKLLEGK	not soluble
MGSDKIHHHHHHMKDILKELKKKLSEEDFNKFNGRVTRVVGLTVESKGPDAFLGEMCKISLQNGKNALAEVVGFREESVILMPYEDVSGLKMGCEVIRTNKVLEVGVSRKMIGRVFDGLGRPIDGKPFVPEDRYPLINNPPNPLKRRRIKDPLPVGIRSIDGFITIGKGQRIGIFAGSGVGKSTLLGMIARNTTADINVLALIGERGREVREFIERDLGEEGLKRSILVVSTSDQPALARVKSLLTATSIAEFFRDLGYDVLLMVDSLTRWAMAQREVGLAVGEPPTTRGYPPSVFAGLPKILERAGNSDKGSITAIYTVLVEADDFNEPISDTVRSIVDGHIILSRRLAESNHYPAVDVLASVSRLMNDIVTEEHREAANRLRSLMSAYESAKDLIEIGAYKSGTNPLVDKAVEMKDEIDSFLKQGVFEKASFEETLQKLLDLYLRSLD	not soluble
MGSDKIHHHHHHMKDILVIGATGKQGNAVVKQLLEDGWYVSALTRNKNNRKLSDIGHPHLSIVEGDLSDNVSLQSAMKGKYGLYSIQPIVKDDVSEELRQGMKIIEIAEQENIQHIVYSTAGGVNRNRTGPHFEVLAKIENRLMESNINATVIKPSFFMDNFLRIAKVEDERITLPEFINPNIKFTMISSIDIAKIASYIFAHPQSFTHQSIEIGSDEVTLSEAATIFSEVTGKSTVIEGEFVSGVAEKQWLEEKGYEVDFELMAEINPTRLSLSDWLKVQNYNK	not soluble
MGSDKIHHHHHHMKDNYDAPESMLTGRVMYNGEALQLRGNEAVQLQLYQHGYAKHDPINVYVNQDGMYSANLFDGEYQMITKSGNGPWTSEGRDTINVTVAGNTVQDVEVTPYYLVRDAQMTLEGNKVNASFKVEKVAGGGIDRVFFMLSTTQFVNDAEHNVDRYDETDNLDAYDETGKLYTFATRDYTDNSMFQTALKRGTLFGRICIWPKGSDQGIYSKVIRLK	not soluble
MGSDKIHHHHHHMKDSFRTIYNGASVPLAEIPPVDINEFLQGILDSVDRGWRIVSYFGIPAPSSTALVCILANKAEGRLAAARTETSDSHVPSLSSLITQVQLFEREIAEQCGLIFDGHPWFKPVRFHHSFVPGRDAWDRTADEPLRVGVMDYYQVAGDEVHEVAVGPVHAGIIEPGHFRFQCHGEEVFHLEISLGYQHRGIEAGLAGGPHPRTLQVMETAAGDTTIGHGQAYCMIMESLGGIKAPPRAEVLRGIALELERLANHTGDLGAIAGDVGYLPTSSFCGRIRGDFLNMTAVLCGSRFGRGLLVPGGTIFDLTPGLRDDLLKRLAEARRDLTNAIELLWSSPSVMGRLEGTGTLTREQALELGLVGPAARACGIKRDVRLDYPFGIYRMTHLPVATVFHGDVCARTMIRWLEAQKSMDFIEEQLRQLPGGGHRVATAPCAGGRLAVALTEGWRGEICHVAVTDDAGRFSRYKIVDPSFHNWQGLALALRGQQISDFPLCNKSFNLSYCGFDL	not soluble
MGSDKIHHHHHHMKEISVVLVGIGGYGNKYVEYILREGREKGVRISGVVDPYPQNSRFYDELRSLNVPMYNTLEEFYSHHTADLAIISSPIHYHCEQTCTAVRNGSHVLCEKPAAATVKEVKKMIECREKYGKIVAIGYQWSYNPAVLKLKEDILAGKFGKPVLFKTLVLWPRDTAYYRRNSWAGKLKVNNRWVLDSVAGNATAHFLHNMLFLLGEKMEESAYPESMVAELYRANDIESFDTCALKMTVRKIPVLFFATHAVKERKGPVFEYRFEKARVICNYPEYPESEENLLVVYEDGRKEIYGPTDHGSMRKLWVVVDAARGRKEFICTLESAMAHTIAINGAHVSMKEIQDFPTELKRVEGEPPMIWVEGLKEAMERAYEEEKIFSELNLPWAKRGEEVKLENFEGLEGEITC	not soluble
MGSDKIHHHHHHMKEIVHLQSFLAVARTGSLTLAAEELHVTPSAVSHRLRQLEQRLGAKLLRRTPHGMALTGEGQRFKDRISDPIEAIEMALRPETGQEGPLTVSVMPWFASSWLMPRLKRFQLRCPDARIRIETSSQLSDLAHGHVTAALRFGRGDWPDIEVEPLFDEWVIPVASPDVVAQMGSNAQDPARWPRLPDPDDLWSSWFGDEVMGEAMRSSIELHDTSSLTEAAVNGMGVVLGRYTHVAPWLERGDLVTLASQWIRMPKRHYLVRSRHRPMHSCFPHFRRWLHDEVKKYQTSASSEFY	not soluble
MGSDKIHHHHHHMKEVTLGRGMIPGVVPSLAFRRDVSSIVAKRNPSPSIRASFPVRDLFHALARSAGDSDTHHAARKFLDERLVEVAHLESDLPHDIAALPQWLEQRCARVRSDYRAYLADRHAGQQARYFSCRAHALHFLQSMAPSRMVEGAWLYGFLKHWREARFAPMCRVYLRNLGDGDPGCNQVSLYQKLLDRNGCADWHGLDDQYYVQGAIRLALGHHVDHYLPEIIGFNLGYDQVSLPMLIAAYELSEQGVLPHYFTLHVTEDDAGASSAMKLLGSLLDTADSAKAREMLLHRVNNGYKLHRLGLDIPGIVASFDLQKAFLAVMQPCAAYLERVYRIDCMERGIRGRWTDSLPLPLLLQQLCNEGWMHPDEKGKTRLWQVLERGNLLPAPGYPQQVVVDWSARSDEYGKRLPHTDVADLVPVSPPPARRPEEAEEHWADFNESGSQADLMEHMIRLLSPLAHHTQEGLKAARIYKSILEKGSELYSQHSALFLWHGRV	not soluble
MGSDKIHHHHHHMKFLDVNQHLSELDEHIKVLKSYGDVFEAVEARITRVINMDGAFKGEGAKGVIYNHTHMQLPTIRSIRAFLISFSDTLEKMKANITEYEPASNGSVSENFWKNQLPKAYDRYEETLEEREATINQATAQVSHILHLGKLQTGDLYNSVDSARKHADTVLEGLYDLDQAGVELMAQVRTKMEELKATIRQVLDWNMTGGVTMKGVSIMEIGGYFANNATLHEKAPEVKVELLDLNPLVQYANDFPLRFKYDTMHSINESI	not soluble
